Experiment: protease stability score; higher = more stable; yeast display proteolysis, trypsin and chymotrypsin;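 also: relative to predicted unfolded state with 0 unfolded-like and 1 meaning tenfold more protease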

Row | Sequence | protease stability score
1 | DELTEIMLRIAQLILTILLTGNEDHFKRLFDPNVRLTINGVDFVGREWIVHFMRNLTDELRIKDNKIEDIRVQGDKAKVDSRLDGEVDGQHMELRTSYVLIKIDGRWSVHSVEFR | 1.26
2 | DEERKEYEDALTLFIEYLLTGDFERLEHLADPTTRLIVNGQEFHGRELVMRQLLEIRFHDHKLHDYKVVNGVAILDTRDRGIINGQETIFKTHIVLQKIDGRWVLRRYEIR | 1.38
3 | DEDEEREKVYHELHLHNLLTGNEEILANLVDPHVLSIVNGKELHGMDEVRKLWQELGWTWHDIHIHDEKRIGNKVHIDVRLNGNINGRTMIVRAKITITKINGRWYVSHIEII | 0.718
4 | DEDEELAKKFIEEWHESVLTGDEDSLRKLADPNMKVNVDGRHMVGWEYYKHLLERIDHLTSIEIKRLRVIDGVIDTDVRMDITFDGKRHLLETQLIVLKVNGRWHLRSISMK | 1.36
5 | DDLKEDADKYSDLEREARQTGDEDFISNLMDPNVLVLINGREIHGREDVLKWLVDLRRKLGVDRFRSEVEDKHIDVQGDKIRIHGILRLNFNGQHFRIDVHIIFQKVDGRWHVREERYH | 1.41
6 | SEHDEDLENAWRVIKHSTETGDEETSRELIDPNARIDINGKDLHGREEISRIFSEWRVHHIEIKHVEHVGNKVHIDGHEDINVDGRRMETRIELIITKINGKWLVHSIRYI | 0.53
7 | SHDEDRLREMIERWVEFMITGDEDRLRELADPNMRIHVNGKDLHGREEYARWINELGVKHIEITHVDLQGDKIDIVTELRFDGRTHDIHIKARKIDGRWHLTEFREE | 1.34
8 | HEEEEEAERFVKEIIHSWKTGNEDDMHRLVDPNVRLIIGDKTYHGRENFVKHMEEWLQRAGVKHFHLRKVDVFDGKLDIHSEVRQGSDETELHISVEKINGRWRLQLVIIV | 1.7
9 | DEDQEEANHLIDLFIASLNTGDWEIIDHMADPHVKFRSVVNGKREKHIGREEMIRWFEEIEERFGYENFHVRYQRFEVQGEKMNTDITIEWNGRRFRSIILLHVFNGKLKSMEIIDI | 1.25
10 | SELEEEMEKWARDFLRLWFTGDEETTERLFDPHARMDVNGVQNHGWEMMSRQLTHYINHIRIRDLEVETISQQGDKIYVHGQENVEIGDKHLRYHTHIELVIVNGRVQEVRIEVK | 0.993
11 | DEEEQHSRELAEIYFEIWETGDFHTHKRMMDPNAKLDYNGQTIHGREHIVEYLRHLWERVKGVRFHLDSVHLQGDWLHIRGTLQVDGQHHKVDIHVQIVDGVLHEEHIRVR | 1.53
12 | DEDEEISKRLLKQLIHMLKTGDEDLFWHLFDPDTRLIVGDKEDHGREELAKSIRELWHEIRIERLHLRSIHIIGDFIHLIVRLIRNVNGKKDDINLELIVIKVDGKWRFKEMEIQ | 1.44
13 | DKEKEDLKKLSDWWLHAIETGDFETIFRLLDPHVRIEINIGDKTHSIHGREEFYKWLHRVKNLQMTIHHSEPIGDKIRLHGFFVIDGVHHDTRHELYFIDGRLHEVHIHVI | 2.21
14 | DEEDEELHRILQLLKEYWKTGDWERFHELADPNPLLIINGVENHGMDSVKHAWEEFRRRIDHNEKIEDKDSKRQGEFIVLHVKVDGHVNGRRTETDMHIILLIVNGKVKDVEIRIR | 1.38
15 | SEEERSAIEFITRWIQAFETGDEDTLHKLADPNMKIWINGRELIGMQRFIRELQEEMTKRGVRIHIRIEDMRVFNGRLHTDGQFKLEVNGVDVFTTTYLLINKINGKWILEHVNIN | 1.3
16 | SEDDEILERMLRELIHLIRTGDEDSIREMADPNVRLIINGKEFHGMEEYIKTWHRILERFDHLRHVELHDEHRFDGRVRIWGTLNHRIGDKHTRFTVHIVALKFNGRWILKSEEIT | 1.36
17 | DEDEEDKKWMSEHLENLIHTGDEENLLKLVDPHAKVLVDGRTRHGRETLETWLDRFLRELGVDRVESRITHFDRIDGKVHVIMSIHVNGVDFISHSISQKVNGRWVIRSLHYDER | 0.587
18 | RDLDEIARHVIELWKETYETGDERHLRELLDPNMRVEVNGVESHGREEMMKHMVKYAREIRITEIIDRDTDSQGNKLHIHGEIIVEQGDKKHRYTLDVTFFVVDGRIKHLHFRSK | 1.2
19 | SEEEKEAQHLLELENDARRTGDEDFSREMVDPNVKIDINGRDLHGWDVAEELMRQADHVHHEHIRQVEVQGDKLIVDMEINGHINGKSFDIKIHLFIWKYNGKWFVRKIDVK | 1.44
20 | SESQEVLEMAIRIWRHTVKTGDEREIAELMDPHVRIEVGDKEFIGRELVSHWFLRFSEHMRIHDIEIKRYHVVGNKAHIHTVVDGEVDGKRDYTEVELIVEKVDGRWLIRSMKIR | 2.49
21 | SEEEEHAKHIARLWMESFYTGDEHHMSHLLDPNVRIIIEIGDKSDEFHGREETVKWVRKYLREMRLKNFEIHDQRVFNGVANDDTIVHGNVDGRERNIRTHIIIVVVNGRVKEVKVEVK | 1.6
22 | DEHHEILDHFLHLWIEALHTGDWKLIEKLIDPHAKLRIHQGDKHIEIHGREEVVRREEEWLRRIKNLRLHIDRIEIQGNKFHMEITLHFDGVTVDSRVILFVYDGQIKHIEIRHN | 2.43
23 | DEQQEDAEHATELLLRLLETGDWSTFEKLMDPHVRVDIGDKHLHGREMSSHFIKELVERYPNLRISFKDMRVQGEFIHVIGEVNFNGQRFHSEWVVLKVDGRWTINSVRIE | 1.28
24 | SEDIEELRKVFEDWVRILRTGDEKSHKELMDPTYRNDQGEFHYHGMEDLEKFTRRYDHVNLIFRDMRLVNGVARVDGEIQLHQGDFKIDTHVIIYMLKIDGQWRIRSIEIR | 2.08
25 | DEFEKTAEELLRRLVKNMKTGNEDMISHLLDPNARLEVGEFEYHGREQLVRFLVHLRVDHVDLHHVEVQGDKLILDTRTDGTFNGRRRNIRETIIIRKVNGKWIIESYHVE | 1.46

Row | Sequence | protease stability score
26 | DEDKKVAELVMRLWEHTQRTGDPDMMSKLADPNVRVDVNGREIHGRERLFEHLEHMRINHFRLRDREIHVQGDYVKIRIEGELDGDINGREDRHRIELIIVVEKINGRWFMTEVIVIVK | 1.37
27 | DEDQKEAEDMAELITKLINTGDEEHWLDRADPHMKVDIDGVESVGREEIERLLHELIRKWGVSKIESRNKHVTIINGRVHFRINIHVNGQEYLLILINDKVDGRWRVQETRVHIT | 1.63
28 | DKLDKLLREMLELFNHLLKTGDWDTITKLVDPNVRIDINGQELHGMELILEWWLRLGIRNEHERERDRDSQGEFMHVEGHRHIRINGQSTRFDTILHIEIIDGRIKDIKVNLI | 1.12
29 | TESEFMKEYANKHLTRHLETGDWKDFQRNVDPNARVDFNGVELIGREHAIKLFHEIRIEHLEIHDVKMQGDKLEVDGILHTRQGDKRHDLKVIIHMLKVDGKWVITEIEVR | 0.948
30 | SEEEHEADLLHKELWESWHTGDEKHLTNLMDPNVRLQIGDKHYVGRENALNVLHFIRRKLGIKYFELESVTHHEINGRIHTIFDGSILINGKTVKDKIEVDTEKYNGQWRITQINIDFR | 2.24
31 | DERDEETRRAIEWWVEVLKTGNFKDIKELADPNARVHQGDKHFHGMDHFLDFLERLGIDHVQINHIHYFDGKIEIDHHVRIGDKETRVIFISDKIDGRWRITEVQFH | 1.13
32 | TEEEEDLKEVLRVELETWHTGNWDEMRRLLDPHARLIFDGQTFHGRELAVKFFQELLTRFDVLHIIPQSVSVYNGRVEIHEEMHEVVDGQTIRRTYHVRSSKINGRWSVEVLVIQ | 0.443
33 | SEEEEIVREALKIWFHAMITGDERTLNEMVDPNVRVDVDGKELIGRKHMVELLRRFKNITIRHWHIKHLDIQGDKIEIDTRLDVEVNGRQEILTEKFHARKVDGRWFLSTREER | 2.19
34 | DEDKKWVDEMIRLLLEYWRTGDEERIRQLADPNVRTHINGKEIHGMEIHLQYLREFMETFGVDHVELRIHHKDIQGDKIHLHVEIIYTVGDKEHRQEVHFRARKINGKWMIEHVEIK | 1.25
35 | DNESHLAEEWFRWFIDWMQTGNEEETRKFADPNVRFDINGVEIHGMKLYEDHIKHLGFRQDIRIRHIDTYDGQVDVDTEVRINVNGVEIRHKTRTNLIMIDGKLKTLTVKLE | 1.01
36 | SEEEEQVERFLRLWLHALRTGDEDTHERLMDPNTRIQIGNFIFHGRERALKVVHHLIRQIDHIHDFDIHDVRVQGNKVHVDVRLNTHFDGRTIVLNLHIHIHKVDGRWLFTSLSRE | 1.23
37 | DEERELLDHLAKFILSVVRTGDWESMLRMADPNARIQIDGREYHGMDFFIRHWWELGIDHERIDKIDIQGDKLFIHRTLEYDGQEIDSELYIIVINGKLKSIDIRIR | 0.764
38 | HDEEREVHEWIKLIEHHLRTGDEDAVRKLVDPTVRNDINGVDVVGRREDVERLHQADHIDIELKHVEIQGDKLHIDGVLILDFNGRHFYFRMKIIASKYNGVWKIKEKRVH | 0.999
39 | SEDERDAKMFIDLLNEAMHTGDEQIIKDLVDPHVKIFVGDKIYIGWERYRHMLEEIRIHRWDSEIKRYRVFDGRLEVEGVLHFDVEVNGKRREISTHVELHFDKFDGRWIVREISVH | 1.76
40 | DESEKIMEDATKEHVKSFETGDFHTLLRQLDPHVRNNVNGVELHGREDVIRVLRELMERFPNVRVHIERIEVIGDKVNIKVNWNFNGVIVDVNIIAAKINGRWVNREMEVR | 0.966
41 | DEADRFREFAKRLYLEKSNTGDWEELIRLFDPHARYEYGDKEMHGRDTIDFLREMLGIDRIQLRHVNDHSVDLQGDKIHIDGTVVEEWNGQEYRSRVILILRKVDGRWYLETMHVD | 0.409
42 | SEIEEHIKHMAHEILHNMLTGDWRRFSELADPNVRITVQQGDKVREYHGWESWKLLLDELRLHRFEFKDMHVQGNYAHIIGRQVGEFDGVRQDRDIEIIHVVVNGRIKQVIVHVE | 1.86
43 | DERTEHSEENVKLFIEALRTGDFKTLLRLVDPHVRVIVIINGKEINNHGWEEFLRWMREEFERYPNLRVKVRHLDIQGDFVRVEGHLEVGDKSHRIHLHLLIINGVVELELYIFR | 1.92
44 | DEHHEILREASELFIKAWLTGDEDTMQEMMDPHTRVVFNGRTHHGWTFASEILERIKNIRIQIDDVRHQGEYVEIHFKLHIDGVRWNTKIHLHVIDGKLKRIQHTTE | 1.01
45 | TEEEEQIKEMMEEMQHSYKTGDWRAISELLDPNVRMHIGDKEFHGREDLLRVFKHIRVKHLEIHHVRIIDGRAEVETTYTLVVDGVEHVHHTHIHSRKINGRWHIEEVYIH | 2.02
46 | TEEEEESKKAVEDLLHTIKTGNEEHMDRLLDPNVRLHVGDKDFVGREAFRHFWHEEWERFKNIKVELEDVKIFNGRVQIVLRIDIGDKHHRLHVYADKINGRWFIKRVEIE | 2
47 | DEQERHAEEFVREHMNAWVTGDWEMLIRQLDPNTRFIQGDKRHHGREALHYMRERVDHIKSVHIDRVDVYNGRVIIDIELIGLIDGRDVTFHVHIITKKIDGRWIVHELRHE | 0.82
48 | SETHMESKIASEIFSDIMHTGDFRTLLRYADPHVRYIVGDKTMHGREIMVEEFKELWKTWGVDRVEVRIEDIKVIGEKVEIHGTLIIGEKTLRVVVISTKVNGQWIQDTFNVDEK | 0.838
49 | DEDTELMRHIIERLLRSSKTGDEDSMADLLDPNVRIVNEDERLHGRELASRFMYELRIHHFELTRFKVYDGKIDIDGIHDGEINGVRRRVWVEFISVKVNGKWQIKELRIG | 1.35
50 | SDVDDMAHKMATLLIDLLETGDWREIRKFADPNVRIEIGDKEYHGMDYHLKHFRDLGWELHLRVERIDVVNGRILIHQEVELRFDGRHDHRKHTLIIEKIDGKWRFNEMIIS | 1.09

— the NTF2 design screens of Basanta et al. (2020)
